Values of other authors as cited in paper PMC5371862.

Columns and labels:
[1] = target: muscarinic acetylcholine receptor M4 (Homo sapiens) (UniProt P08173)
[2] = target: muscarinic acetylcholine receptor M1 (Homo sapiens) (UniProt P11229)
[3] = target: P-type calcium channel (UniProt O00555)
[4] = target: lethal factor (Bacillus anthracis) (UniProt P15917)
[5] = target: edema factor (Bacillus anthracis) (UniProt P40136)
Chain of edema factor (Bacillus anthracis) (P40136 34-800): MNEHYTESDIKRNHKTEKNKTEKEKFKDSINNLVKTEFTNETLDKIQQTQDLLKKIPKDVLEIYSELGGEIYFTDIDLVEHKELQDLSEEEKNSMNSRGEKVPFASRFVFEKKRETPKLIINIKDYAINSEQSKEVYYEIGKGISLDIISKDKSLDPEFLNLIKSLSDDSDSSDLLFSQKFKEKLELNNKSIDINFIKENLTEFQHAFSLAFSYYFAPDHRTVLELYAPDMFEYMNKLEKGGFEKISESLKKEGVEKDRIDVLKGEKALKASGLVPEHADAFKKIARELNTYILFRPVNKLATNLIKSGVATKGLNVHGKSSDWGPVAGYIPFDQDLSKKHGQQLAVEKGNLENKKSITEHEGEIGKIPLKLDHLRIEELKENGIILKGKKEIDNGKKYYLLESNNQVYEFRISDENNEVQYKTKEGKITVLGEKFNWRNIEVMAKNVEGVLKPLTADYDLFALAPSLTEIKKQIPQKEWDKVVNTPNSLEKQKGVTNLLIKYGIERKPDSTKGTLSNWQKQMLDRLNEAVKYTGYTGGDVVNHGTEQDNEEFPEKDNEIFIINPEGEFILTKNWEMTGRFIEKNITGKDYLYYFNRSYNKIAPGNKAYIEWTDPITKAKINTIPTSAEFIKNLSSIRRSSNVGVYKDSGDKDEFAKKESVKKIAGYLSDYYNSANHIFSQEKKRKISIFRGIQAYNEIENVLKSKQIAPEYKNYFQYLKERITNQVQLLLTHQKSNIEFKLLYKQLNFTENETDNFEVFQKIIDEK

Chain of protective antigen PA63 oligomer PA63 (P13423 197-764): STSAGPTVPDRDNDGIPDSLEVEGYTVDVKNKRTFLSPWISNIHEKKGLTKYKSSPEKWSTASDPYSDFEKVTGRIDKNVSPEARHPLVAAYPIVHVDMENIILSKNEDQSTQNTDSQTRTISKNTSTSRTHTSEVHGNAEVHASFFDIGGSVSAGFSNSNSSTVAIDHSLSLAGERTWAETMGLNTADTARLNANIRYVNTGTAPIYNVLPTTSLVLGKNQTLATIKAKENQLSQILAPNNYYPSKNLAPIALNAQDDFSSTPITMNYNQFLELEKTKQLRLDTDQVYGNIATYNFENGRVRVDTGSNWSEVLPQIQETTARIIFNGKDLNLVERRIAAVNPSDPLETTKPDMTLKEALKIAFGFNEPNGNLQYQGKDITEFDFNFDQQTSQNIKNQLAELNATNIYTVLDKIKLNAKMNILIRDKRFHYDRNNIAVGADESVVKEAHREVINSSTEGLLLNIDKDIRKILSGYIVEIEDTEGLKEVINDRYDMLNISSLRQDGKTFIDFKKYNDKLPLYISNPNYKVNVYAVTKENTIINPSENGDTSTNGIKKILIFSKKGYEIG
Chain of lethal factor (Bacillus anthracis) (P15917 34-809): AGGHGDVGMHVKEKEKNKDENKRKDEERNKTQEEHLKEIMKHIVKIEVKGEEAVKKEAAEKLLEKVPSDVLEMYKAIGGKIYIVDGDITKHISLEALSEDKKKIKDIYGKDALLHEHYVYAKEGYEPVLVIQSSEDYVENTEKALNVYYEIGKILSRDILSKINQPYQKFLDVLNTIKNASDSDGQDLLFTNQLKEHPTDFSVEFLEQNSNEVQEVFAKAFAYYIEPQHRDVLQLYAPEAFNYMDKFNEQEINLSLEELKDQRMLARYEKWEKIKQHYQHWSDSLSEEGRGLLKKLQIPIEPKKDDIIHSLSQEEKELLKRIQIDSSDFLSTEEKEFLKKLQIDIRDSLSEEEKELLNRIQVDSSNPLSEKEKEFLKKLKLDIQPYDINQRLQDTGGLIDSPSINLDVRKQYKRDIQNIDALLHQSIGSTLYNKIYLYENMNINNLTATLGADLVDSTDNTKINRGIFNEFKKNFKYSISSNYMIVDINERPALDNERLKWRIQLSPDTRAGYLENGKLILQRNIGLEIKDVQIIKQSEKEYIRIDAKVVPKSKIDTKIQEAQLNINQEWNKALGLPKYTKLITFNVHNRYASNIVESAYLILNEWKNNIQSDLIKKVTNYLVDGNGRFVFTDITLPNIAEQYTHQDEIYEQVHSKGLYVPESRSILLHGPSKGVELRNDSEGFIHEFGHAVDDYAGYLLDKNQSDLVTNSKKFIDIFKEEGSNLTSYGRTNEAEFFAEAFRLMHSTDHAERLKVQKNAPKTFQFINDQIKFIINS
Chain of omega-agatoxin Aga-IVA (P30288 whole entry): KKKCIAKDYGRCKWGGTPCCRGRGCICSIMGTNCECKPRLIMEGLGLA
Chain of muscarinic acetylcholine receptor M1 (Homo sapiens) (P11229 whole entry): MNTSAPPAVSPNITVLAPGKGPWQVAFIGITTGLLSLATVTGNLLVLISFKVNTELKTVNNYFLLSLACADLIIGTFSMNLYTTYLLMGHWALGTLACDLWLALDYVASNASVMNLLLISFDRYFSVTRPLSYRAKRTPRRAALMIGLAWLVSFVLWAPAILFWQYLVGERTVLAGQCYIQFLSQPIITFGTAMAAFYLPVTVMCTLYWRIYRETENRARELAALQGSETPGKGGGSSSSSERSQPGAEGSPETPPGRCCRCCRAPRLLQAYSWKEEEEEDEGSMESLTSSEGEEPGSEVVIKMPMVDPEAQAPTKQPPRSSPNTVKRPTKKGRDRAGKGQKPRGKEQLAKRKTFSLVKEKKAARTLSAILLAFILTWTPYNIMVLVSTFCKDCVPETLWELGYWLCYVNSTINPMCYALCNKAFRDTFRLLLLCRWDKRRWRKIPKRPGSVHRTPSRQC
Chain of muscarinic toxin MT7 (Q8QGR0 22-86): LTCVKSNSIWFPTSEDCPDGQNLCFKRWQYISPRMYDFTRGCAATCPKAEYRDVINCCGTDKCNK
Chain of muscarinic toxin MT3 (P81031 whole entry): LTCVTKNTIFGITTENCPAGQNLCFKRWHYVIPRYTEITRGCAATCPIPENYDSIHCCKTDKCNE
Chain of muscarinic acetylcholine receptor M4 (Homo sapiens) (P08173 whole entry): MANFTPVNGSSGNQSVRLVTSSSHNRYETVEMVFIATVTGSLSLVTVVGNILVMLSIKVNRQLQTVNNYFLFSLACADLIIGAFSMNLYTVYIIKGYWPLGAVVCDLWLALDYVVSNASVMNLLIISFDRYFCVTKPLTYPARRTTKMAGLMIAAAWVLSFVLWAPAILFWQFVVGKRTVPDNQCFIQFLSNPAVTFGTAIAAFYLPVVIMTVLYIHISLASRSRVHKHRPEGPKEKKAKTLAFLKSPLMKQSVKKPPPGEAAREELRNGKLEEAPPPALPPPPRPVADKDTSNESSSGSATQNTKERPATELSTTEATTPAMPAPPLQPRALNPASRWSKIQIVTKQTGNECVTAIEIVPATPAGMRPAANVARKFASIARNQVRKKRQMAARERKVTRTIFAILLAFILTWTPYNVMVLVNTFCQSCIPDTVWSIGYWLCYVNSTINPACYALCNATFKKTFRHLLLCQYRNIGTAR

Substance: muscarinic toxin MT3 (from UniProt P81031)
- Ki [1]: 2 nM

Substance: muscarinic toxin MT7 (from UniProt Q8QGR0)
- Ki [2]: 0.014 nM

Substance: omega-agatoxin Aga-IVA (from UniProt P30288)
- Kd [3]: 3 nM

Substance: protective antigen PA63 oligomer PA63 (from UniProt P13423)
- Kd [4]: 1 nM
- Kd [5]: 1 nM
